Test results from patent US20220105150A1, “AMPHIPATHIC ALPHA-HELICAL ANTIMICROBIAL PEPTIDES TREAT INFECTIONS BY GRAM-NEGATIVE PATHOGENS” (priority 2019, published 2022).
Square brackets hold non-standard residues; d marks the D form. dOrn = NCCC[C@@H](N)C(=O)O; Dab = NCC[C@H](N)C(=O)O; Dap = NC[C@H](N)C(=O)O

B1: D85(K13A/K16A)-(Lys1-6Orn-1) (peptide)
peptide: Ac-[dK][dL][dOrn][dS][dL][dL][dOrn][dT][dL][dS][dOrn][dA][dA][dA][dA][dA][dL][dOrn][dT][dL][dL][dOrn][dA][dL][dS][dOrn]-NH2
SMILES: CC(=O)N[C@H](CCCCN)C(=O)N[C@H](CC(C)C)C(=O)N[C@H](CCCN)C(=O)N[C@H](CO)C(=O)N[C@H](CC(C)C)C(=O)N[C@H](CC(C)C)C(=O)N[C@H](CCCN)C(=O)N[C@@H](C(=O)N[C@H](CC(C)C)C(=O)N[C@H](CO)C(=O)N[C@H](CCCN)C(=O)N[C@H](C)C(=O)N[C@H](C)C(=O)N[C@H](C)C(=O)N[C@H](C)C(=O)N[C@H](C)C(=O)N[C@H](CC(C)C)C(=O)N[C@H](CCCN)C(=O)N[C@@H](C(=O)N[C@H](CC(C)C)C(=O)N[C@H](CC(C)C)C(=O)N[C@H](CCCN)C(=O)N[C@H](C)C(=O)N[C@H](CC(C)C)C(=O)N[C@H](CO)C(=O)N[C@H](CCCN)C(N)=O)[C@H](C)O)[C@H](C)O
notes: Control AMP without specificity determinants (Ala13/Ala16); also called D85(A13/A16-6Orn-1); D85(K13A/K16A-6 Orn-1)
B2: D87(Lys1-6Arg-1) (peptide)
peptide: Ac-[dK][dL][dR][dS][dL][dL][dR][dT][dL][dS][dR][dA][dK][dA][dA][dK][dL][dR][dT][dL][dL][dR][dA][dL][dS][dR]-NH2
SMILES: CC(=O)N[C@H](CCCCN)C(=O)N[C@H](CC(C)C)C(=O)N[C@H](CCCNC(=N)N)C(=O)N[C@H](CO)C(=O)N[C@H](CC(C)C)C(=O)N[C@H](CC(C)C)C(=O)N[C@H](CCCNC(=N)N)C(=O)N[C@@H](C(=O)N[C@H](CC(C)C)C(=O)N[C@H](CO)C(=O)N[C@H](CCCNC(=N)N)C(=O)N[C@H](C)C(=O)N[C@H](CCCCN)C(=O)N[C@H](C)C(=O)N[C@H](C)C(=O)N[C@H](CCCCN)C(=O)N[C@H](CC(C)C)C(=O)N[C@H](CCCNC(=N)N)C(=O)N[C@@H](C(=O)N[C@H](CC(C)C)C(=O)N[C@H](CC(C)C)C(=O)N[C@H](CCCNC(=N)N)C(=O)N[C@H](C)C(=O)N[C@H](CC(C)C)C(=O)N[C@H](CO)C(=O)N[C@H](CCCNC(=N)N)C(N)=O)[C@H](C)O)[C@H](C)O
notes: De novo designed 26-residue amphipathic alpha-helical antimicrobial peptide; Arg at 3, 7, 11, 18, 22, 26; Lys13/Lys16 specificity determinants; also called D87(6Arg-1); D87-6 Arg-1
B3: D105(Lys1-6Dap-1) (peptide)
peptide: Ac-[dK][dL][Dap][dS][dL][dL][Dap][dT][dL][dS][Dap][dA][dK][dA][dA][dK][dL][Dap][dT][dL][dL][Dap][dA][dL][dS][Dap]-NH2
SMILES: CC(=O)N[C@H](CCCCN)C(=O)N[C@H](CC(C)C)C(=O)N[C@@H](CN)C(=O)N[C@H](CO)C(=O)N[C@H](CC(C)C)C(=O)N[C@H](CC(C)C)C(=O)N[C@@H](CN)C(=O)N[C@@H](C(=O)N[C@H](CC(C)C)C(=O)N[C@H](CO)C(=O)N[C@@H](CN)C(=O)N[C@H](C)C(=O)N[C@H](CCCCN)C(=O)N[C@H](C)C(=O)N[C@H](C)C(=O)N[C@H](CCCCN)C(=O)N[C@H](CC(C)C)C(=O)N[C@@H](CN)C(=O)N[C@@H](C(=O)N[C@H](CC(C)C)C(=O)N[C@H](CC(C)C)C(=O)N[C@@H](CN)C(=O)N[C@H](C)C(=O)N[C@H](CC(C)C)C(=O)N[C@H](CO)C(=O)N[C@@H](CN)C(N)=O)[C@H](C)O)[C@H](C)O
notes: Designed 26-residue AMP; Lys13/Lys16 specificity determinants; also called D105(6Dap-1); D105-6 Dap-1
B4: D86(K13A/K16A)-(Lys1-6Dab-1) (peptide)
peptide: Ac-[dK][dL][Dab][dS][dL][dL][Dab][dT][dL][dS][Dab][dA][dA][dA][dA][dA][dL][Dab][dT][dL][dL][Dab][dA][dL][dS][Dab]-NH2
SMILES: CC(=O)N[C@H](CCCCN)C(=O)N[C@H](CC(C)C)C(=O)N[C@@H](CCN)C(=O)N[C@H](CO)C(=O)N[C@H](CC(C)C)C(=O)N[C@H](CC(C)C)C(=O)N[C@@H](CCN)C(=O)N[C@@H](C(=O)N[C@H](CC(C)C)C(=O)N[C@H](CO)C(=O)N[C@@H](CCN)C(=O)N[C@H](C)C(=O)N[C@H](C)C(=O)N[C@H](C)C(=O)N[C@H](C)C(=O)N[C@H](C)C(=O)N[C@H](CC(C)C)C(=O)N[C@@H](CCN)C(=O)N[C@@H](C(=O)N[C@H](CC(C)C)C(=O)N[C@H](CC(C)C)C(=O)N[C@@H](CCN)C(=O)N[C@H](C)C(=O)N[C@H](CC(C)C)C(=O)N[C@H](CO)C(=O)N[C@@H](CCN)C(N)=O)[C@H](C)O)[C@H](C)O
notes: Control AMP without specificity determinants (Ala13/Ala16); also called D86(A13/A16-6Dab-1); D86(K13A/K16A-6 Dab-1)
B5: D105(K13A/K16A)-(Lys1-6Dap-1) (peptide)
peptide: Ac-[dK][dL][Dap][dS][dL][dL][Dap][dT][dL][dS][Dap][dA][dA][dA][dA][dA][dL][Dap][dT][dL][dL][Dap][dA][dL][dS][Dap]-NH2
SMILES: CC(=O)N[C@H](CCCCN)C(=O)N[C@H](CC(C)C)C(=O)N[C@@H](CN)C(=O)N[C@H](CO)C(=O)N[C@H](CC(C)C)C(=O)N[C@H](CC(C)C)C(=O)N[C@@H](CN)C(=O)N[C@@H](C(=O)N[C@H](CC(C)C)C(=O)N[C@H](CO)C(=O)N[C@@H](CN)C(=O)N[C@H](C)C(=O)N[C@H](C)C(=O)N[C@H](C)C(=O)N[C@H](C)C(=O)N[C@H](C)C(=O)N[C@H](CC(C)C)C(=O)N[C@@H](CN)C(=O)N[C@@H](C(=O)N[C@H](CC(C)C)C(=O)N[C@H](CC(C)C)C(=O)N[C@@H](CN)C(=O)N[C@H](C)C(=O)N[C@H](CC(C)C)C(=O)N[C@H](CO)C(=O)N[C@@H](CN)C(N)=O)[C@H](C)O)[C@H](C)O
notes: Control AMP without specificity determinants (Ala13/Ala16); also called D105(A13/A16-6Dap-1); D105(K13A/K16A-6 Dap-1)
B6: D85(Lys1-6Orn-1) (peptide)
peptide: Ac-[dK][dL][dOrn][dS][dL][dL][dOrn][dT][dL][dS][dOrn][dA][dK][dA][dA][dK][dL][dOrn][dT][dL][dL][dOrn][dA][dL][dS][dOrn]-NH2
SMILES: CC(=O)N[C@H](CCCCN)C(=O)N[C@H](CC(C)C)C(=O)N[C@H](CCCN)C(=O)N[C@H](CO)C(=O)N[C@H](CC(C)C)C(=O)N[C@H](CC(C)C)C(=O)N[C@H](CCCN)C(=O)N[C@@H](C(=O)N[C@H](CC(C)C)C(=O)N[C@H](CO)C(=O)N[C@H](CCCN)C(=O)N[C@H](C)C(=O)N[C@H](CCCCN)C(=O)N[C@H](C)C(=O)N[C@H](C)C(=O)N[C@H](CCCCN)C(=O)N[C@H](CC(C)C)C(=O)N[C@H](CCCN)C(=O)N[C@@H](C(=O)N[C@H](CC(C)C)C(=O)N[C@H](CC(C)C)C(=O)N[C@H](CCCN)C(=O)N[C@H](C)C(=O)N[C@H](CC(C)C)C(=O)N[C@H](CO)C(=O)N[C@H](CCCN)C(N)=O)[C@H](C)O)[C@H](C)O
notes: Designed 26-residue AMP; also called D85(6Orn-1)
B7: D86(Lys1-6Dab-1) (peptide)
peptide: Ac-[dK][dL][Dab][dS][dL][dL][Dab][dT][dL][dS][Dab][dA][dK][dA][dA][dK][dL][Dab][dT][dL][dL][Dab][dA][dL][dS][Dab]-NH2
modifications: not fully specified
notes: Designed 26-residue AMP; Lys13/Lys16 specificity determinants; also called D86(6 Dab-1); D86-6 Dab-1
B8: D102(Lys1Ser26-5Dab-1) (peptide)
peptide: Ac-[dK][dL][Dab][dS][dL][dL][Dab][dT][dL][dS][Dab][dA][dK][dA][dA][dK][dL][Dab][dT][dL][dL][Dab][dA][dL][dS][dS]-NH2
SMILES: CC(=O)N[C@H](CCCCN)C(=O)N[C@H](CC(C)C)C(=O)N[C@@H](CCN)C(=O)N[C@H](CO)C(=O)N[C@H](CC(C)C)C(=O)N[C@H](CC(C)C)C(=O)N[C@@H](CCN)C(=O)N[C@@H](C(=O)N[C@H](CC(C)C)C(=O)N[C@H](CO)C(=O)N[C@@H](CCN)C(=O)N[C@H](C)C(=O)N[C@H](CCCCN)C(=O)N[C@H](C)C(=O)N[C@H](C)C(=O)N[C@H](CCCCN)C(=O)N[C@H](CC(C)C)C(=O)N[C@@H](CCN)C(=O)N[C@@H](C(=O)N[C@H](CC(C)C)C(=O)N[C@H](CC(C)C)C(=O)N[C@@H](CCN)C(=O)N[C@H](C)C(=O)N[C@H](CC(C)C)C(=O)N[C@H](CO)C(=O)N[C@H](CO)C(N)=O)[C@H](C)O)[C@H](C)O
notes: Designed 26-residue AMP; Ser26; Lys13/Lys16 specificity determinants; also called D102(5 Dab-1)
B9: D101(Lys1Ser26-5Lys-1) (peptide)
peptide: Ac-[dK][dL][dK][dS][dL][dL][dK][dT][dL][dS][dK][dA][dK][dA][dA][dK][dL][dK][dT][dL][dL][dK][dA][dL][dS][dS]-NH2
SMILES: CC(=O)N[C@H](CCCCN)C(=O)N[C@H](CC(C)C)C(=O)N[C@H](CCCCN)C(=O)N[C@H](CO)C(=O)N[C@H](CC(C)C)C(=O)N[C@H](CC(C)C)C(=O)N[C@H](CCCCN)C(=O)N[C@@H](C(=O)N[C@H](CC(C)C)C(=O)N[C@H](CO)C(=O)N[C@H](CCCCN)C(=O)N[C@H](C)C(=O)N[C@H](CCCCN)C(=O)N[C@H](C)C(=O)N[C@H](C)C(=O)N[C@H](CCCCN)C(=O)N[C@H](CC(C)C)C(=O)N[C@H](CCCCN)C(=O)N[C@@H](C(=O)N[C@H](CC(C)C)C(=O)N[C@H](CC(C)C)C(=O)N[C@H](CCCCN)C(=O)N[C@H](C)C(=O)N[C@H](CC(C)C)C(=O)N[C@H](CO)C(=O)N[C@H](CO)C(N)=O)[C@H](C)O)[C@H](C)O
notes: Designed 26-residue AMP; Lys at 3, 7, 11, 18, 22; Ser26; Lys13/Lys16 specificity determinants; also called D101(5 Lys-1)
B10: D84(Lys1-6Lys-1) (peptide)
peptide: Ac-[dK][dL][dK][dS][dL][dL][dK][dT][dL][dS][dK][dA][dK][dA][dA][dK][dL][dK][dT][dL][dL][dK][dA][dL][dS][dK]-NH2
SMILES: CC(=O)N[C@H](CCCCN)C(=O)N[C@H](CC(C)C)C(=O)N[C@H](CCCCN)C(=O)N[C@H](CO)C(=O)N[C@H](CC(C)C)C(=O)N[C@H](CC(C)C)C(=O)N[C@H](CCCCN)C(=O)N[C@@H](C(=O)N[C@H](CC(C)C)C(=O)N[C@H](CO)C(=O)N[C@H](CCCCN)C(=O)N[C@H](C)C(=O)N[C@H](CCCCN)C(=O)N[C@H](C)C(=O)N[C@H](C)C(=O)N[C@H](CCCCN)C(=O)N[C@H](CC(C)C)C(=O)N[C@H](CCCCN)C(=O)N[C@@H](C(=O)N[C@H](CC(C)C)C(=O)N[C@H](CC(C)C)C(=O)N[C@H](CCCCN)C(=O)N[C@H](C)C(=O)N[C@H](CC(C)C)C(=O)N[C@H](CO)C(=O)N[C@H](CCCCN)C(N)=O)[C@H](C)O)[C@H](C)O
notes: Designed 26-residue AMP; Lys at 3, 7, 11, 18, 22, 26; Lys13/Lys16 specificity determinants; also called D84(6 Lys-1); D84-6 Lys-1

Assays:
[1] = molecular target: the molecule itself; test: RP-HPLC temperature profiling, self-association (dimerization/oligomerization) against random coil control RC
serum proteins = test: cell-based or functional assay

Binder	PA (self-association parameter) [1] [min]	MIC (µM) against A. baumannii strain 649 in 25% human serum (no serum: 0.7) (serum proteins) [µM]	MIC (µM) against A. baumannii strain 649 in 25% human serum (no serum: 0.8) (serum proteins) [µM]	other results
B1	28	–	–	–
B2	5.9	1.3	–	–
B3	3.7	–	3	fold change of MIC in 25% human sera against no serum (serum proteins): 4 fold
B4	12.5	–	3	fold loss of antimicrobial activity in 25% human sera (serum proteins): 4 fold
B5	18	–	12.5	fold loss of antimicrobial activity in 25% human sera (serum proteins): 15 fold
B6	4.1	–	–	MIC (µM) against A. baumannii strain 649 in 25% human serum (no serum: 0.4) (serum proteins): 0.2 µM
B7	0	0.2	–	–
B8	0	–	–	MIC (µM) against A. baumannii strain 649 in 25% human serum (no serum: 0.4) (serum proteins): 0.7 µM
B9	6	0.7	–	–
B10	5.9	–	–	MIC (µM) against A. baumannii strain 649 in 25% human serum (no serum: 0.3) (serum proteins): 0.3 µM
